Patent US20140134155A1 (TECHNISCHE UNIVERSIT T DRESDEN, published 2014)

Legend:
[1] = target: T1, prostate-specific stem cell antigen (PSCA) (human, UniProt O43653 12-83); test: cell-based or functional assay
T1 sequence (looked up): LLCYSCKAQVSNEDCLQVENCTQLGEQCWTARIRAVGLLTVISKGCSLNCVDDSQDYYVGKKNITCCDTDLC

[2] = target: T2, prostate-specific stem cell antigen (PSCA) (human) (UniProt O43653); test: cell-based or functional assay
T2 sequence (looked up): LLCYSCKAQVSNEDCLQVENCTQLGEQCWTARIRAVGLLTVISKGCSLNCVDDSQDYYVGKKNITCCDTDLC

| Binder | specific lysis of 51Cr-loaded PC3-PSCA tumor cells (chrome release test, effector target ratio 10:1, 20 h) [1] [%] | antibody amount giving strong lysis of PSCA-positive cells (chrome release test) [2] [ng] | specific lysis of 51Cr-loaded PC3-PSCA tumor cells (chrome release test) [2] [%] |
| --- | --- | --- | --- |
| humanized bispecific scBsTaFv CD3-PSCA(MB1) (bispecific antibody) QVQLVQSGAEVKKPGASVKVSCKASGYTFTKYVIHWVRQAPGQGLEWMGYINPYNDVSKYNEKFRGRVTMTTDTSTSTAYMELRSLRSDDTAVYYCARNKDYYPMDYWGQGTTVTVSGGGGSGGGGSGGGGSEIVLTQSPATLSLSPGERATLSCSASSSVSYMHWYQQKPGQAPRLLIYDTSKLASGIPARFSGSGSGTDFTLTISSLEPEDFAVYYCQQWSSNPLTFGGGTKVEIKDIQMTQSPSSLSASVGDRVTITCGTSQDINNYLNWYQQKPGKVPKLLIYYTSRLHSGVPSRFSGSGSGTDFTLTISSLQPEDVATYYCQQSKTLPWTFGGGTQLTVLGGGGSGGGGSGASAAGGGGSGGGGSQVQLVESGGGLVKPGGSLRLSCAASGFTFSSYSMSWIRQAPGKGLEWVSYINDSGGSTFYPDTVKGRFTISRDNAKNSLYLQMNSLRAEDTAVYYCARRMYYGNSHWHFDVWGQGTTVTVSS | > 90 |  |  |
| murine bispecific scBsTaFv CD3-PSCA(MB1) (bispecific antibody, part only; not given: anti-CD3 scFv and tags, not shown: small tags and cut ends) chain, part: VQLQESGGVLVQPGGSLKLSCAASGFTFSSYSMSWIRQTPDRRLEWVAYINDSGGSTFYPDTVKGRFSISRDNAKNTLYLQISRLRSGDTAIYYCSRRMYYGNSHWHFDVWGAGTTVTVSSGGGGSGGGGSGGGGSDIVMTQSTSSLSASLGDRVTINCGTSQDINNYLNWYQQKPDGSVKLLIYYTSRLHSGVPSRFSGSGSGTDYSLTISNLEQGDIATYFCQQSKTLPWTFGGGTKLELKRADAAPTVS |  | < 1 | 80 |
| murine bispecific scBsTaFv CD3-PSCA(7F5) (bispecific antibody, part only; not given: anti-CD3 scFv, linkers, tags, part only) chain, part: QVKLQESGGGLVQPGGSLKLSCVASGFTFSSYTMSWVRRTPEKRLEWVAYIHNGGGHTYYPDTIKGRFTISRDNAKNTLFLEMSSLKSEDTAMYYCTRRMYYGNSHWYFDVWGAGTSVTVSDIQMTQSPSSLSASVGDRVTITCRTSQDISNYLNWYQQKPGKAPKLLIYYTLKLNSGVPSRFSGSGSGTDFTFTISSLQPEDIATYYCQQSKTLPWTFGGGTKVEIK |  |  | 60 |
